Assay results taken from doi:10.1101/676627 (bioRxiv, 2019).
Positions count from the first letter of the chain named. Names may count otherwise.

B1: ROCext surface engineered mutant (KA), K1460A and K1463A (domain or fragment, human, UniProt Q5S007 1329-1520, looked up)
chain: AVPYNRMKLMIVGNTGSGKTTLLQQLMKTKKSDLGMQSATVGIDVKDWPIQIRDKRKRDLVLNVWDFAGREEFYSTHPHFMTQRALYLAVYDLSKGQAEVDAMKPWLFNIKARASSSPVILVGTHLDVSDEAQRAACMSKITKELLNKRGFPAIRDYHFVNATEESDALAKLRKTIINESLNFKIRDQLVVG
B2: ROCext, wild-type GTPase (ROC) domain of human LRRK2, residues 1329-1520 (domain or fragment, UniProt Q5S007 1329-1520, looked up)
chain: B1 chain with A132K, A135K

Experiments:
[1] = target: the molecule itself; assay: crystal structure
[2] = target: the molecule itself; assay: SEC-MALS

Row | Protein | stoichiometry N [1] | stoichiometry N [2]
1 | B1 | 2 | –
2 | B2 | – | 2
